In the supplement of paper PMC10065799, “High-throughput profiling of sequence recognition by tyrosine kinases and SH2 domains using bacterial peptide display” (eLife, 2023):

Columns and labels:
[1] = target: SHP2-C SH2; assay: SH2 binding enrichment of the phosphorylated peptide, bacterial display (enrichment ratio); higher = better substrate or ligand; peptides without Tyr show the background
[2] = target: Grb2 SH2 (UniProt P62993); assay: as above
[3] = target: c-Src SH2; assay: as above
[4] = target: Hck (UniProt P08631); assay: phosphorylation enrichment, bacterial display (enrichment ratio); higher = better substrate or ligand; peptides without Tyr show the background
Chain of Hck (P08631 whole entry, looked up): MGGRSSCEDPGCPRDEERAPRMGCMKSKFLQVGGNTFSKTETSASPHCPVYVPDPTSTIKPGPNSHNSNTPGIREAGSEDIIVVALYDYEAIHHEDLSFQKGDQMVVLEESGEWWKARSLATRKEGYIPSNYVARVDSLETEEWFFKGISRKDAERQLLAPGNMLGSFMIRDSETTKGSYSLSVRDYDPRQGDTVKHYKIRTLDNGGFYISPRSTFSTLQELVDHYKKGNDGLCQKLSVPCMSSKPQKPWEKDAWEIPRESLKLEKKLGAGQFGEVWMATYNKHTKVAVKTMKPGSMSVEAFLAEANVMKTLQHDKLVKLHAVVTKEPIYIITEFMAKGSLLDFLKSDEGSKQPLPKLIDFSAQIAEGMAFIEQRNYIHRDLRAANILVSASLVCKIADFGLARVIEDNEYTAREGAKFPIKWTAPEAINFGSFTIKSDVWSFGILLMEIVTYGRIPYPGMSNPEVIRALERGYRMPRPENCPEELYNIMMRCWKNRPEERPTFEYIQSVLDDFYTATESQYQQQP

[5] = target: FGFR1 (UniProt P11362); assay: as above
Chain of FGFR1 (P11362 whole entry, looked up): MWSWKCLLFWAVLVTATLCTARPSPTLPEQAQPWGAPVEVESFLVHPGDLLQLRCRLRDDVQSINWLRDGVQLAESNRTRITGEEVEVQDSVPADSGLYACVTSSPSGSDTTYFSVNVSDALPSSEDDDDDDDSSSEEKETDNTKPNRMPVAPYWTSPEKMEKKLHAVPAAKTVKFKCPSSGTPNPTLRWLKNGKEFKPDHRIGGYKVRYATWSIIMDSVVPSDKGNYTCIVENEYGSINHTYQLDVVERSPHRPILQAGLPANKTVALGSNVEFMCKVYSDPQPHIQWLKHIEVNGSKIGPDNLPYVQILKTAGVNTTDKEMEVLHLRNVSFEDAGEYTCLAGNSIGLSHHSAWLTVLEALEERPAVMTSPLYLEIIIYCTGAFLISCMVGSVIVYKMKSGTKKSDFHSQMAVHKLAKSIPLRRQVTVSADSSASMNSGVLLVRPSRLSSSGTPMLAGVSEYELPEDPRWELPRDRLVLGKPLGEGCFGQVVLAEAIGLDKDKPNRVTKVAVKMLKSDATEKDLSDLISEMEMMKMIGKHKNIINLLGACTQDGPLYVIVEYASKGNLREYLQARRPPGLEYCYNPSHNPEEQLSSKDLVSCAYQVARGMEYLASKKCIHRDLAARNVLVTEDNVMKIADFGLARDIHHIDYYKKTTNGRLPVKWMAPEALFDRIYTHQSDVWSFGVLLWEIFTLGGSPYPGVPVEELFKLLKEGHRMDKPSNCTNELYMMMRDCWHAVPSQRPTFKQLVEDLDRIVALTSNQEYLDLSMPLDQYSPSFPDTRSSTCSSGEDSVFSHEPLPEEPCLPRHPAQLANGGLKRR

[6] = target: MERTK (UniProt Q12866); assay: as above
Chain of MERTK (Q12866 whole entry, looked up): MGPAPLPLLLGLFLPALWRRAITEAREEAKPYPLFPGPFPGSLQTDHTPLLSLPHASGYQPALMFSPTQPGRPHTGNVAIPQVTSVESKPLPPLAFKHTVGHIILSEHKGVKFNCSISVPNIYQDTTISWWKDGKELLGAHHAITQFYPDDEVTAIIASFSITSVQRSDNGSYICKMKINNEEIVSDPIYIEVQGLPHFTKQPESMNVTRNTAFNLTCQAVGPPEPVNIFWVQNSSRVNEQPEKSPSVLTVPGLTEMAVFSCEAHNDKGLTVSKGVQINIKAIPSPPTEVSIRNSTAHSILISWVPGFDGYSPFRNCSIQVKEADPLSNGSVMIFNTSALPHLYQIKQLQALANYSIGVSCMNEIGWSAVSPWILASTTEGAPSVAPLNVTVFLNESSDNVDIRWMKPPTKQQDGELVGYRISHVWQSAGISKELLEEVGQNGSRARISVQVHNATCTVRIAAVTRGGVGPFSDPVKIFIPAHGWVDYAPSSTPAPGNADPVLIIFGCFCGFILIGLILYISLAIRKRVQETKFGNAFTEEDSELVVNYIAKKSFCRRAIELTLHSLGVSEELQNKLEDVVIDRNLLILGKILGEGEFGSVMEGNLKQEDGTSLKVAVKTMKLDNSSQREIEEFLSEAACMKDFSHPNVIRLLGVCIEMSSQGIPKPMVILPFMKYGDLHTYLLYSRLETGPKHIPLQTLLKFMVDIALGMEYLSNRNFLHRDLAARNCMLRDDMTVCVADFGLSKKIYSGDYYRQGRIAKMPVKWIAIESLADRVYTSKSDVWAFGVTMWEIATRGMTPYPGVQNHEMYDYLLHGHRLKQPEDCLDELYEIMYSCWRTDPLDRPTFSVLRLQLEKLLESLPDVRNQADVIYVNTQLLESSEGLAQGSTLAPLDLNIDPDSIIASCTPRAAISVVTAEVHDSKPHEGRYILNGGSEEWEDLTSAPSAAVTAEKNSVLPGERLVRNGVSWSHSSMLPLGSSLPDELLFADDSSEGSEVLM

[7] = system: c-Abl (mouse); assay: as above
[8] = target: Fes (UniProt P07332); assay: as above
[9] = system: Fer (mouse); assay: as above
[10] = system: AncSZ; assay: as above
[11] = target: Fyn (UniProt P06241); assay: as above
Chain of Fyn (P06241 whole entry, looked up): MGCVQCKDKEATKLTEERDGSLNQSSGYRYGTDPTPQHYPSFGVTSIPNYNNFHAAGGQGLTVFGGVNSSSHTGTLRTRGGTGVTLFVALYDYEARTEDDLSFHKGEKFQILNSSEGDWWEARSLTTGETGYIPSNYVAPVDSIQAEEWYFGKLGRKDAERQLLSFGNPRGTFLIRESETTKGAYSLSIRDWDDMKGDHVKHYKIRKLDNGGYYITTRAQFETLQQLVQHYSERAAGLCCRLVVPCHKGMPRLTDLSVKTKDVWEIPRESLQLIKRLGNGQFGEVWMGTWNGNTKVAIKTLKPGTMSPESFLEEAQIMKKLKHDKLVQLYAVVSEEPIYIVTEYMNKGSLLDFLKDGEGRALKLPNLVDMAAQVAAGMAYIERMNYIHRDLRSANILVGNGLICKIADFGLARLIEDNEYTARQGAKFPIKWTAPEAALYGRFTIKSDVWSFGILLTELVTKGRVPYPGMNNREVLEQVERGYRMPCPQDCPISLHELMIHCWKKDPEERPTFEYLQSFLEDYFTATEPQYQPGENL

[12] = target: EPHB1 (UniProt P54762); assay: as above
Chain of EPHB1 (P54762 whole entry, looked up): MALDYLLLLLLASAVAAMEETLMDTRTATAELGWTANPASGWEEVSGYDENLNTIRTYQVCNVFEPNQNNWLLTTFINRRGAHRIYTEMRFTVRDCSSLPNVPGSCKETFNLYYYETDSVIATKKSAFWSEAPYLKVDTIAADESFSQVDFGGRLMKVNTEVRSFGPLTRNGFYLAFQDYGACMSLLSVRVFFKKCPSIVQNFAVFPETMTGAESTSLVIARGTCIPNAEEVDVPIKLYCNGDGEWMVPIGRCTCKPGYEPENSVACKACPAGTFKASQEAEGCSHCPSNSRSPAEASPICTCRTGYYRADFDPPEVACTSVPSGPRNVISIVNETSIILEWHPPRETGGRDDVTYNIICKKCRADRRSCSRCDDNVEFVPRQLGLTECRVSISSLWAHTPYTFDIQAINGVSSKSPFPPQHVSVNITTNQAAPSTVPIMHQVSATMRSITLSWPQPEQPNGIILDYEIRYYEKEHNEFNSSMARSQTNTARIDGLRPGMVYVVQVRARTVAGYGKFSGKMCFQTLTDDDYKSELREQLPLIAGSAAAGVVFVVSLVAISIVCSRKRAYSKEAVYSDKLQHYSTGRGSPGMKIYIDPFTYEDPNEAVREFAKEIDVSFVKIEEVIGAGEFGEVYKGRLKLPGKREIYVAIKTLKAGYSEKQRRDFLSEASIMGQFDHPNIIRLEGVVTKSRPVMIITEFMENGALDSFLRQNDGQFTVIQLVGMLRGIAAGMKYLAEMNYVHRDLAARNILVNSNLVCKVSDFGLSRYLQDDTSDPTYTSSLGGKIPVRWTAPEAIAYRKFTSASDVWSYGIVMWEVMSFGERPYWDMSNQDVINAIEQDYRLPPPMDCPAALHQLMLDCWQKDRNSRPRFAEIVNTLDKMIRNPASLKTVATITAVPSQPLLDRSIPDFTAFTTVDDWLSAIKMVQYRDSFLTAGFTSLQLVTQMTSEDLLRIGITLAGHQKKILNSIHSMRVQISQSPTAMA

[13] = system: c-Src; assay: as above
[14] = target: FGFR3 (UniProt P22607); assay: as above
Chain of FGFR3 (P22607 whole entry, looked up): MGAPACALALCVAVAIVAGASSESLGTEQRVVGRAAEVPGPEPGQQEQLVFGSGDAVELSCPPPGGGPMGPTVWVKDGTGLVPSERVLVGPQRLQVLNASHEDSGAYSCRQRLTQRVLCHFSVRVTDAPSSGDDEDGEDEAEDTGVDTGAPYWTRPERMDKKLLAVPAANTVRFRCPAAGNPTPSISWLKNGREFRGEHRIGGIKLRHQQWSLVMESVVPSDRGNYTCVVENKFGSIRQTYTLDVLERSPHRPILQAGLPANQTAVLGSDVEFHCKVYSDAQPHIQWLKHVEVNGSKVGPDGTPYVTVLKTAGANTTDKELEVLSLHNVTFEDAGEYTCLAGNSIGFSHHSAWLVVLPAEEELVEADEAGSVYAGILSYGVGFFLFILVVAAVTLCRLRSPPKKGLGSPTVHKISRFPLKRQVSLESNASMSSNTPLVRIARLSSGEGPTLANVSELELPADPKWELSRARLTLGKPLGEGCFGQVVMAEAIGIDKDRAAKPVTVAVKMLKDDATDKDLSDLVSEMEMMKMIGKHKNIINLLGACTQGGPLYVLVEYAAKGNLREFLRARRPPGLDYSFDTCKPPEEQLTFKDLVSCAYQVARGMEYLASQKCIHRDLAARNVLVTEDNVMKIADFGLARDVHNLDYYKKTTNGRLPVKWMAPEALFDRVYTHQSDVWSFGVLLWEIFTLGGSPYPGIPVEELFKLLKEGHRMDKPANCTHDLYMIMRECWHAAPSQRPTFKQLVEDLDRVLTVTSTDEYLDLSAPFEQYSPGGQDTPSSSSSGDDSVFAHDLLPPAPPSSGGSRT

[15] = target: EPHB2 (UniProt P29323); assay: as above
[16] = target: Jak2 (UniProt O60674); assay: as above
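Throughout, for SH2 binding enrichment of the phosphorylated peptide, bacterial display: peptide library displayed on the E. coli surface as eCPX fusions, selected cells deep-sequenced, score is each peptide's frequency after selection divided by its frequency in the input.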
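Throughout, for phosphorylation enrichment, bacterial display: 11-residue human phosphosite peptides and single-mutation variants displayed on the E. coli surface, counted by deep sequencing, each peptide's frequency after selection divided by its frequency in the unselected input library; frequency after pTyr selection over input frequency; kinase dosed for 20-30% of maximal phosphorylation in three min.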

Chain of Grb2 SH2 (P62993 whole entry, looked up): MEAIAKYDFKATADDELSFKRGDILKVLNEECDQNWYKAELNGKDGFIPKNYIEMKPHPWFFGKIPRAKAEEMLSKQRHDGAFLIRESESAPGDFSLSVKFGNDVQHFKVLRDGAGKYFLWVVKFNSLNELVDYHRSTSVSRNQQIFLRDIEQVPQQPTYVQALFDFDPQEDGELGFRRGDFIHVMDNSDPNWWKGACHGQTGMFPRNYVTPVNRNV

Row | Sequence | SH2 binding enrichment [1] | SH2 binding enrichment [2] | SH2 binding enrichment [3] | phosphorylation enrichment [4] | phosphorylation enrichment [5] | phosphorylation enrichment [6] | phosphorylation enrichment [7] | phosphorylation enrichment [8] | phosphorylation enrichment [9] | phosphorylation enrichment [10] | phosphorylation enrichment [11] | phosphorylation enrichment [12] | phosphorylation enrichment [13] | phosphorylation enrichment [14] | phosphorylation enrichment [15] | phosphorylation enrichment [16]
1 | SETDDYAEIID [PTK2_Y397] | 0.627 | 1.04 | 0.561 | 0.702 | 0.748 | 0.625 | 1.05 | 1.6 | 0.688 | 1.53 | 0.573 | 0.877 | 0.744 | 1.01 | 0.838 | 1.57
2 | SSDKVCAHQMV [MLH1_Y379_Y379C] | 0.705 | 0.984 | 0.714 | 0.4 | 0.397 | 0.859 | 0.587 | 0.606 | 0.356 | 0.587 | 0.388 | 0.379 | 0.361 | 0.536 | 0.443 | 0.563
3 | AGREIYESEKC [TTN_Y4424_D4427E] | 1.09 | 1.15 | 0.844 | 0.495 | 0.535 | 0.547 | 0.708 | 0.925 | 0.47 | 0.856 | 0.525 | 0.427 | 0.59 | 0.638 | 0.585 | 0.846
4 | DYLEKYYKFGS [NNMT_Y24] | 0.727 | 0.922 | 0.623 | 0.402 | 0.486 | 0.494 | 0.458 | 0.768 | 0.369 | 0.631 | 0.436 | 0.33 | 0.636 | 0.553 | 0.436 | 0.791
5 | DSNLIYSQIWS [FCRL3_Y662_P660L] | 0.951 | 0.754 | 0.538 | 9.1 | 7.38 | 10 | 15.4 | 12.2 | 15.7 | 2.1 | 9.04 | 15.2 | 7.08 | 6.79 | 17.1 | 2.46
6 | YETDYYRKGGK [INSR_Y1190] | 0.676 | 0.675 | 0.622 | 0.469 | 0.522 | 0.427 | 0.752 | 0.864 | 0.392 | 0.668 | 0.398 | 0.41 | 0.338 | 0.492 | 0.419 | 0.83
7 | ICFSDYVEVAD [PHACTR1_Y525_R521C] | 0.515 | 0.607 | 0.467 | 0.698 | 2.34 | 0.459 | 0.985 | 1.55 | 0.609 | 2.01 | 0.555 | 1.81 | 0.549 | 2.26 | 1.42 | 1.28
8 | KNAEKYAEEDW [HSPA9_Y568_R573W] | 0.541 | 0.735 | 0.541 | 0.52 | 0.763 | 0.533 | 0.895 | 1.56 | 0.487 | 1.32 | 0.533 | 0.667 | 0.51 | 0.776 | 0.727 | 1.21
9 | AKIDGYIISFR | 0.547 | 0.936 | 0.576 | 0.365 | 0.472 | 0.37 | 0.559 | 1.13 | 0.386 | 1.1 | 0.412 | 0.575 | 0.315 | 0.654 | 0.412 | 1.06
10 | YDAHNYHPLPV [OAT_Y55_G51D] | 0.697 | 1.15 | 0.813 | 2.01 | 12.7 | 3.58 | 1.05 | 0.685 | 6.52 | 0.871 | 0.864 | 0.923 | 0.622 | 7.27 | 1.62 | 0.848
11 | FTNELYMMMRD [FGFR1_Y730_C725Y_YF] | 0.661 | 0.844 | 0.604 | 1.99 | 1.54 | 3.53 | 0.57 | 1.24 | 0.752 | 1.37 | 1.1 | 3.18 | 1.29 | 1.53 | 1.69 | 0.938
12 | PVQAVYQKVVA [HBB_Y131_A130V] | 1.01 | 0.913 | 1.3 | 1.75 | 0.421 | 1.47 | 0.203 | 0.532 | 1.14 | 0.373 | 0.677 | 0.727 | 1.61 | 0.617 | 0.578 | 0.289
13 | RLLVVYPWTRR [HBB_Y36_Q40R] | 0.448 | 0.506 | 0.465 | 1.14 | 0.567 | 0.64 | 0.577 | 0.626 | 0.407 | 0.683 | 0.523 | 0.505 | 0.68 | 0.823 | 0.597 | 0.469
